Test results from article PMC314469, “Protein Interaction Networks by Proteome Peptide Scanning” (PLoS Biology, 2004).

Key:
[1] = molecular target: endophilin SH3 (SH3G2_HUMAN), Q99962; experiment: SPOT array
[2] = molecular target: T1, amphyphisin SH3 (AMPH_HUMAN), P49418; experiment: SPOT array
T1 chain: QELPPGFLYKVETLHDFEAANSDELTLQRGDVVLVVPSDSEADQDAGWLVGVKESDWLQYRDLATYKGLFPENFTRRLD

| Binder | normalised SPOT signal, Boehringer light units (BLU); mean over the file's lines of this peptide [1] | normalised SPOT signal, Boehringer light units (BLU); mean over the file's lines of this peptide [2] |
| --- | --- | --- |
| GTQELRRPAQLRLQ [P98161 595-608] | 45.8 | 47.4 |
| GRSALRRPWRKSGS [Q9BR44 22-35] | 160 | 531 |
| ALLTPHRPGRALSF [Q9NZK9 120-133] | 491 | 5440 |
| GSQVPERPPKPFPR [P22681 815-829] | 13600 | 1710 |
| GSALPRRPLLSIPA [Q01974 4-17] | 2140 | 36.4 |
| GSGSPVRPPVSTWG [Q9NUB4 27-41] | 16.6 | 32.2 |
| GSEKPKRPVSAMFI [P17480 403-416] | 2530 | 39.3 |
| GSEPPRRPPPAPHD [P48634 1687-1701] | 2350 | 372 |
| GPYGPHRPPQPLPP [Q99687 39-53] | 212 | 54.3 |
| GSSALKRPFEDGLG [Q9BXG4 352-365] | 39.6 | 27.5 |
| ALLVPVKPPTAWEG [Q8TCB4 82-96] | 55.1 | 2.4 |
| GSPAPKRPPDPFPG [O43593 424-437] | 706 | 51.3 |
| GTPKPKRPAILTYH [Q9UN36 56-69] | 1130 | 33.4 |
| GSQAPARPPKPRPR [Q13191 898-911] | 62500 | 423 |
| GRNDLKRPMQAPPG [Q9HD26 258-271] | 39.5 | 32.8 |
| GQVILRRPLDYEKN [Q9NPG4 302-315] | 20.9 | 19.8 |
| GQKQPKRPRSESSS [O00467 395-408] | 43.7 | 51.5 |
| GSGKPSRPSKPIVA [Q15598 1240-1253] | 1350 | 125 |
| GSVHPVRPMRLESF [P26022 194-207] | 2470 | 9890 |
| GSELPRRPLPPAAQ [P04818 4-17] | 70.6 | 40.1 |
| GSPEPKRPGVSEAA [Q9UN79 64-77] | 17.9 | 26.6 |

| Binder | normalised SPOT signal, Boehringer light units (BLU); mean over the file's lines of this peptide [1] | normalised SPOT signal, Boehringer light units (BLU); mean over the file's lines of this peptide [2] |
| --- | --- | --- |
| GQKLPRRPQPGPGE [Q9H8D9 660-673] | 43 | 14.9 |
| GTRAPQRPKRESRG [Q9H7I4 14-27] | 1420 | 11400 |
| GQSAPRRPSAGDGA [Q9P2C5 54-67] | 142 | 23.6 |
| GQQLPPRPPQSSSV [O15027 229-243] | 486 | 66.4 |
| GSWSPMRPKKEAMK [O75928 422-435] | 1880 | 168 |
| GQLQPSRPTRARGT [Q14163 165-178] | 111 | 4840 |
| GTGSPARPPTPAQV [Q9Y4Y7 208-222] | 2420 | 85.9 |
| GTLPPPRPRREGRS [Q9H7L8 148-161] | 3720 | 5470 |
| GRTPPARPPQDPAE [BAC05028 186-200] | 129 | 69 |
| GREAPGRPPRAVPK [Q9ULI4 1050-1063] | 19300 | 2140 |
| GSSSPSRPPGLSSN [BAC05127 110-124] | 318 | 72.7 |
| GQRRLRRPLILGLG [O75761 132-145] | 93.3 | 42.9 |
| GPSSPQKPPTPEET [P18887 443-457] | 57.4 | 43.4 |
| ALPHFRRPFFEEAA [Q9HCI5 739-752] | 95.9 | 43.2 |
| GRPRPRRPAQYPAR [Q9BTV6 2-15] | 649 | 73.1 |
| GSVELRRPPAHQVM [Q15142 511-524] | 52.2 | 55.2 |
| GQDKPVKPPTKKSE [P20810 625-639] | 232 | 48.2 |
| GRDFLQRPGRQPQA [O75016 262-275] | 135 | 211 |
| GSESLSRPWRARAK [O94851 799-812] | 91.7 | 248 |
| GRAWLRRPHPRDVG [Q9H4N7 178-191] | 55.2 | 2.1 |
| ALLEPRRPPHDYMP [Q99946 106-119] | 55.2 | 33 |
